{
  "source": "patent US20250051404A1",
  "key": {"[1]": {"target": "integrin αvβ3 expressed on CHO cells (CHO-αvβ3)", "test": "cell-based or functional assay"}, "human VEGF165 (human)": {"target": "human VEGF165 (human) (UniProt P15692)", "test": "direct binding ELISA, VEGF165 coated, anti-human IgG Fc-HRP detection"}},
  "data": [
    {"substance": "Positive Control 3 (wild type Rho, SEQ ID NO: 1) (from UniProt P30403 408-475) (ligand)", "values": [
      {"measurement": "IC50", "setting": "soluble integrin αvβ3", "value": "2.6 to 3.2", "unit": "nM"},
      {"measurement": "αvβ3, IC50 (nM), inhibition of CHO-αvβ3 cell adhesion to fibrinogen", "setting": "[1]", "value": 24.7, "unit": "nM"}
    ]},
    {"substance": "Positive Control 2 (aflibercept) (Fc fusion)", "values": [
      {"measurement": "EC50", "setting": "human VEGF165 (human)", "value": "0.088 to 0.195", "unit": "nM"}
    ]}
  ]
}
